Reference: publication PMC7287101

Target: Spt6 (UniProt Q9W420)
Experiment: anti-Spt6 co-IP, FLAG blot, 150 mM wash
Conditions: reference: wild type dCENP-A-FLAG; sites S20,S75,S77

binding against the reference: stronger
Substance: dCENP-A (CID) (from UniProt Q9V6Q2) S20/S75/S77A
